The values that follow come from patent US20170327556A1, “CARTILAGE-BINDING FUSION PROTEINS” (Merrimack Pharmaceuticals, Inc., priority 2013, published 2017).

Series [1] is described as follows: ELISA binding of fusion proteins to chondroitin sulfate coated plates. The settings on record: 6x-Histidine-tagged proteins, FIG. 1B. Here is the method: (§1) The specificity of binding of fusion proteins to the polysaccharides heparan sulfate and chondroitin sulfate may be determined by measuring the ability of the proteins to bind polysaccharides coated on an ELISA plate. Heparin Binding Plates (BD Biosciences) are coated with 50 μl of 2-10 μg/mL concentration of heparan sulfate or chondroitin sulfate (Sigma-Aldrich®) and incubated overnight at room temperature. Plates are washed with PBS and blocked with 250 μl of 0.2% gelatin in PBS for 1 hour at 37 C. Plates are then washed with PBS and tapped dry. 50 μl of protein in a dilution series is added to the wells and incubated for 2 hours at 37 C. The protein dilution series starts from 100 nM and includes ten additional three-fold dilutions in PBS, 0.2% gelatin and one blank (PBS, 0.2% gelatin only). After the plates are washed in PBS, 50 μl of anti-human IGF-1 (Abcam) at 1:250 in PBST is added and the plates are incubated for 1 hour rotating at room temperature. Plates are washed with PBST and 100 μl of 1:1000 anti-Rabbit-HRP (Cell Signaling Technology®) in PBST is added to each well and the plate is incubated for 1 hour at room temperature. […] The absorbance is measured at 450 nm and the resulting data is analyzed using GraphPad Prism® (GraphPad Software, San Diego, Calif.). […]
A general note: In an ELISA, binding on a coated surface is turned into a signal by an enzyme label.

Series [2] is described as follows: Stability of GF-Fus3 in human synovial fluid (western blot). In kind it is in vitro ADME. As for the experimental part: Synovial fluid was harvested from two human donors (see Table 14) within 24 hours of death, flash frozen and stored at −80° C. 2 μL of GF-Fus3 (0.45 mg/mL in PBS, Life Technologies Cat#10010-031) was added to 18 pt of synovial fluid (final GF-Fus3 concentration is 45 μg/mL) in a sealed 200 μL PCR tube and incubated at 37° C. for 0, 24, 48, 72, or 96 hours. Samples were diluted 1:10 in PBS and 10 μL (45 ng of GF-Fus3) was mixed with 3.3 μL of NuPAGE LDS Sample Buffer (Life Technologies, Cat# NP0007). GF-Fus3 standards were prepared at 100, 200, 400, 800, and 1600 ng/mL and 10 μL of each solution was mixed with 3.3 uL of NuPAGE LDS Sample Buffer. All samples and standards were loaded onto a 4-12% NuPAGE Bis-Tris Gel (Life Technologies, Cat# NP0321BOX), and run in NuPAGE MES SDS Running Buffer (Life Technologies, Cat# NP0002). Protein was transferred to a nitrocellulose membrane using an iBlot kit (Life Technologies, Cat# IB301001). Membrane was blocked in Odyssey Blocking Buffer (LI-COR, Cat#927-40000) for 1 hour at room temperature with agitation. Membrane was washed twice in PBS with 0.05% Tween20 (PBS-T) and incubated in 2 μg/mL anti-IGF-1 antibody (Millipore, Cat#05-172) overnight at 4° C. Membrane was washed three times in PBS-T and incubated with IRDye 800CW goat anti-mouse antibody (LI-COR, Cat#827-08364) diluted 1:2000 for 1 hour at room temperature. […]
A general note: A western blot detects proteins with antibodies after separation by electrophoresis.

The test system of series [3] is bovine cartilage explants. Nature of the series: In vitro joint disease model (IL-1), explanted bovine cartilage: ^35S-sulfate incorporation. In kind it is cell-based. The following applies: 4 and 12 day treatments, IL-1, FIG. 16.
A short description of series [4]: ELISA binding of fusion proteins to heparan sulfate coated plates. The following applies: 6x-Histidine-tagged proteins, FIG. 1A. As for the experimental part:
as §1

In series [5] the target is T1, collagen type II (Homo sapiens, UniProt P02458).
T1 construct: purchased Chondrex Products, Redmond, Wash
T1 sequence (P02458 182-1241 limits assumed): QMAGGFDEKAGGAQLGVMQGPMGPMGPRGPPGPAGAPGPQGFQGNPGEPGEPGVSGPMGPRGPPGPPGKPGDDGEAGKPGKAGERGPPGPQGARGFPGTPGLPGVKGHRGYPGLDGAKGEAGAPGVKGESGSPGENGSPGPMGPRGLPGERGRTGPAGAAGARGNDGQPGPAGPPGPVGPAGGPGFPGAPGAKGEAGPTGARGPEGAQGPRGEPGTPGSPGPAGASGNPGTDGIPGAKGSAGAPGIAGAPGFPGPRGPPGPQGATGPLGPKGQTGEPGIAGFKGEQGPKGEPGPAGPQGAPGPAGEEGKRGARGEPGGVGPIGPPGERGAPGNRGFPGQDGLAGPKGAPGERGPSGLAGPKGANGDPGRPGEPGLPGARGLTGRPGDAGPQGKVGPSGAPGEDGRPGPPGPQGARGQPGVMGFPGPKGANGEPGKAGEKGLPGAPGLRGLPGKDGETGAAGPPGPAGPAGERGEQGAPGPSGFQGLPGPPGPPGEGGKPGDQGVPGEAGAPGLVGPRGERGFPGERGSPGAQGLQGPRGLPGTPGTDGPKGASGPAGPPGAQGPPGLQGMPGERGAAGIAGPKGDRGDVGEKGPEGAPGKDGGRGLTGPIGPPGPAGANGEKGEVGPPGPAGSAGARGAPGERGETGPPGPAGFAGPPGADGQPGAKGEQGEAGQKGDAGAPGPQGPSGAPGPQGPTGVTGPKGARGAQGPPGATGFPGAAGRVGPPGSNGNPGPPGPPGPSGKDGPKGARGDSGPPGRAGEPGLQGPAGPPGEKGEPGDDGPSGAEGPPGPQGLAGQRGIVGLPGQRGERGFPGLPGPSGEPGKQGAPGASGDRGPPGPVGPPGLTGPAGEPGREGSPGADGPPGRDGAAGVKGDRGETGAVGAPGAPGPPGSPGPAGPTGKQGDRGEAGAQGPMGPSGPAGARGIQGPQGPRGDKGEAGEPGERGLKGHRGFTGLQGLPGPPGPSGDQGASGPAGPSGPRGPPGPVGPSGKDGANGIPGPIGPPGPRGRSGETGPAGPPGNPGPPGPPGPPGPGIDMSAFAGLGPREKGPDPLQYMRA
Nature of the series: ELISA binding of fusion proteins to collagen type II coated plates. The following applies: 6x-Histidine-tagged proteins, FIG. 2. Here is the method:
Specificity of proteins to collagen type II may be determined by measuring the ability of the protein to bind the collagen coated on an ELISA plate. Reacti-Bind® 96 well plates are coated overnight at 4° C. with 100 μl of collagen type II (Chondrex Products, Redmond, Wash.) with 1× supplied buffer. Plates are washed with PBS, 0.05% Tween-20 (PBST) and blocked for 1 hour at room temperature with 100 μl of Protein-Free Blocking Buffer (Pierce, Thermo Scientific). Plates are then washed with PBST and tapped dry. 50 μL, of protein in a dilution series is added to the wells and incubated for 1 hour at room temperature. The protein dilution series starts from 100 μM and includes ten additional three-fold dilutions in PBS and one blank (PBS). After plates are washed in PBS, 50 μL, of anti-human IGF-1 (Abcam) at 1:250 in PBST is added and plates are incubated for 1 hour rotating at room temperature. The plates are then washed with PBST and 100 μL, of 1:1000 anti-Rabbit-HRP (Cell Signaling Technology) in PBST for 1 hour at room temperature. […] The absorbance is measured at 450 nm and the resulting data is analyzed using GraphPad Prism®.
The binding of two anticipated type II collagen binding fusion proteins, GF-Fus5 (6x-Histidine-tagged) and GF-Fus6 (6x-Histidine-tagged) was measured as described above.

On to “GF-Fus3: C-terminal fusion IGF-1(LR3)-PRELP heparin binding domain”, for which, in series [1], the “binding to chondroitin sulfate” value was “bound”. Moreover, the “protein degradation band at less than 7.5 kDa” value in series [2] (45 ng loaded, after incubation in synovial fluid at 37° C.) is on record as no more than 1 ng. Further, the “protein degradation in synovial fluid” value in series [2] (96 hours of 37° C. incubation, donors with grade 1 and grade 3 cartilage degeneration) is reported as “minimal protein degradation”. Moreover, in series [3], the “cartilage matrix synthesis compared to GF-Fus3-His” value is reported as “equivalent”. Besides, in series [4], the “binding to heparan sulfate” value is reported as “bound”.

In the case of “GF-Fus5: IGF-1(LR3) fused to CNA35 CB domain”, the “binding to collagen type II” value in series [5] is given as “bound to collagen type II”.

Regarding “GF-Fus6: IGF-1(LR3) fused to CNA344 CB domain”, in series [5], the “binding to collagen type II” value was “binding more strongly”.
